From publication PMC3903617 (PLoS ONE, 2014)

What was measured:
Settings in all cases: both partners purified
[1] = target: T1, monocyte chemo-attractant protein-1 (MCP-1) (Homo sapiens (Human)., UniProt P13500); test: SPR; Biacore T200; MCP-1 immobilised on a CM5 chip by amine coupling (~220 RU), scFv injected at 30 µl/min; PBS with 0.005% Tween-20; 25°C; global fit, 1:1 Langmuir model; KD from koff/kon
T1 construct: MCP-1 (monocyte chemo-attractant protein-1), chemokine; synthetic gene optimised for E. coli in pET26b; Probably the mature human chemokine, as in PDB 2BDN; also called monocyte chemotactic protein-1; antigen; source: E. coli Rosetta2 (DE3), purified (Ni-NTA, SEC)

[2] = target: T1, monocyte chemo-attractant protein-1 …; test: SPR; temperature dependence of KD, van't Hoff approximation; MCP-1 immobilised, scFv injected
[3] = target: T1, monocyte chemo-attractant protein-1 …; test: SPR; ionic strength series: MCP-1 immobilised, scFv injected; running buffer with 500 mM NaCl; 25°C
[4] = target: T1, monocyte chemo-attractant protein-1 …; test: SPR; ionic strength series: MCP-1 immobilised, scFv injected; running buffer with 137 mM NaCl; 25°C

Kd [1]	koff [1]	kon [1]	dH [2]	Kd [3]	Kd [4]	kon [4]	Binder
0.8 nM	0.0001 s⁻¹	140000 M⁻¹ s⁻¹	-7.3 kcal/mol	–	–	–	wild-type 11K2 scFv (scFv, V domains shown, VH of antibody 11K2; also the variable domain of the heavy chain of the 11K2 Fab in PDB 2BDN; linker of the scFv; VL of antibody 11K2; also the variable domain of the light chain of the 11K2 Fab in PDB 2BDN; also called WT; scFv 11K2) VH: EVQLQQSGAELVKAGASVKLSCPASGLNIKDTYMHWVKQRPEQGLEWIGRIDPANGNTKFDPKFQGKATITADTSSNTAYLQLSSLTSEDTAVYYCARGVFGFFDYWGQGTTLTVSS VL: DIQMTQSSSSFSVSLGDRVTITCKATEDIYNRLAWYQQKPGSAPRLLISGATSLETGVPSRFSGSGSGKDYTLSITSLQTEDVATYYCQQFWSAPYTFGGGTKLEIK
0.61 nM	5.5e-05 s⁻¹	90000 M⁻¹ s⁻¹	-13.3 kcal/mol	–	–	–	11K2 scFv mutein L-S53D (scFv, V domains shown, PDB 2BDN heavy chain; PDB 2BDN light chain) with the stated change) VH: EVQLQQSGAELVKAGASVKLSCPASGLNIKDTYMHWVKQRPEQGLEWIGRIDPANGNTKFDPKFQGKATITADTSSNTAYLQLSSLTSEDTAVYYCARGVFGFFDYWGQGTTLTVSS VL: DIQMTQSSSSFSVSLGDRVTITCKATEDIYNRLAWYQQKPGSAPRLLISGATDLETGVPSRFSGSGSGKDYTLSITSLQTEDVATYYCQQFWSAPYTFGGGTKLEIK
0.17 nM	2.2e-05 s⁻¹	130000 M⁻¹ s⁻¹	-25.6 kcal/mol	0.47 nM	0.36 nM	170000 M⁻¹ s⁻¹	11K2 scFv mutein L-N31R (scFv, V domains shown, PDB 2BDN heavy chain; PDB 2BDN light chain) with the stated change; also called L-D31R (printed once in the results)) VH: EVQLQQSGAELVKAGASVKLSCPASGLNIKDTYMHWVKQRPEQGLEWIGRIDPANGNTKFDPKFQGKATITADTSSNTAYLQLSSLTSEDTAVYYCARGVFGFFDYWGQGTTLTVSS VL: DIQMTQSSSSFSVSLGDRVTITCKATEDIYRRLAWYQQKPGSAPRLLISGATSLETGVPSRFSGSGSGKDYTLSITSLQTEDVATYYCQQFWSAPYTFGGGTKLEIK
0.39 nM	8.6e-05 s⁻¹	220000 M⁻¹ s⁻¹	-11.7 kcal/mol	–	–	–	11K2 scFv mutein L-T56D (scFv, V domains shown, PDB 2BDN heavy chain; PDB 2BDN light chain) with the stated change) VH: EVQLQQSGAELVKAGASVKLSCPASGLNIKDTYMHWVKQRPEQGLEWIGRIDPANGNTKFDPKFQGKATITADTSSNTAYLQLSSLTSEDTAVYYCARGVFGFFDYWGQGTTLTVSS VL: DIQMTQSSSSFSVSLGDRVTITCKATEDIYNRLAWYQQKPGSAPRLLISGATSLEDGVPSRFSGSGSGKDYTLSITSLQTEDVATYYCQQFWSAPYTFGGGTKLEIK
3.5 nM	0.00039 s⁻¹	110000 M⁻¹ s⁻¹	–	–	–	–	11K2 scFv mutein H-L27K (scFv, V domains shown, PDB 2BDN heavy chain) with the stated change; PDB 2BDN light chain)) VH: EVQLQQSGAELVKAGASVKLSCPASGKNIKDTYMHWVKQRPEQGLEWIGRIDPANGNTKFDPKFQGKATITADTSSNTAYLQLSSLTSEDTAVYYCARGVFGFFDYWGQGTTLTVSS VL: DIQMTQSSSSFSVSLGDRVTITCKATEDIYNRLAWYQQKPGSAPRLLISGATSLETGVPSRFSGSGSGKDYTLSITSLQTEDVATYYCQQFWSAPYTFGGGTKLEIK
2.4 nM	0.00033 s⁻¹	140000 M⁻¹ s⁻¹	–	–	–	–	11K2 scFv mutein H-L27R (scFv, V domains shown, PDB 2BDN heavy chain) with the stated change; PDB 2BDN light chain)) VH: EVQLQQSGAELVKAGASVKLSCPASGRNIKDTYMHWVKQRPEQGLEWIGRIDPANGNTKFDPKFQGKATITADTSSNTAYLQLSSLTSEDTAVYYCARGVFGFFDYWGQGTTLTVSS VL: DIQMTQSSSSFSVSLGDRVTITCKATEDIYNRLAWYQQKPGSAPRLLISGATSLETGVPSRFSGSGSGKDYTLSITSLQTEDVATYYCQQFWSAPYTFGGGTKLEIK
5 nM	0.00015 s⁻¹	30000 M⁻¹ s⁻¹	–	–	–	–	11K2 scFv mutein H-D31E (scFv, V domains shown, PDB 2BDN heavy chain) with the stated change; PDB 2BDN light chain)) VH: EVQLQQSGAELVKAGASVKLSCPASGLNIKETYMHWVKQRPEQGLEWIGRIDPANGNTKFDPKFQGKATITADTSSNTAYLQLSSLTSEDTAVYYCARGVFGFFDYWGQGTTLTVSS VL: DIQMTQSSSSFSVSLGDRVTITCKATEDIYNRLAWYQQKPGSAPRLLISGATSLETGVPSRFSGSGSGKDYTLSITSLQTEDVATYYCQQFWSAPYTFGGGTKLEIK
8.5 nM	0.0019 s⁻¹	220000 M⁻¹ s⁻¹	–	–	–	–	11K2 scFv mutein H-N28Q (scFv, V domains shown, PDB 2BDN heavy chain) with the stated change; PDB 2BDN light chain)) VH: EVQLQQSGAELVKAGASVKLSCPASGLQIKDTYMHWVKQRPEQGLEWIGRIDPANGNTKFDPKFQGKATITADTSSNTAYLQLSSLTSEDTAVYYCARGVFGFFDYWGQGTTLTVSS VL: DIQMTQSSSSFSVSLGDRVTITCKATEDIYNRLAWYQQKPGSAPRLLISGATSLETGVPSRFSGSGSGKDYTLSITSLQTEDVATYYCQQFWSAPYTFGGGTKLEIK
2.5 nM	0.00031 s⁻¹	130000 M⁻¹ s⁻¹	–	–	–	–	11K2 scFv mutein L-Y30K (scFv, V domains shown, PDB 2BDN heavy chain; PDB 2BDN light chain) with the stated change) VH: EVQLQQSGAELVKAGASVKLSCPASGLNIKDTYMHWVKQRPEQGLEWIGRIDPANGNTKFDPKFQGKATITADTSSNTAYLQLSSLTSEDTAVYYCARGVFGFFDYWGQGTTLTVSS VL: DIQMTQSSSSFSVSLGDRVTITCKATEDIKNRLAWYQQKPGSAPRLLISGATSLETGVPSRFSGSGSGKDYTLSITSLQTEDVATYYCQQFWSAPYTFGGGTKLEIK
290 nM	0.098 s⁻¹	340000 M⁻¹ s⁻¹	–	–	–	–	11K2 scFv mutein L-N31K (scFv, V domains shown, PDB 2BDN heavy chain; PDB 2BDN light chain) with the stated change; also called L-D31K (printed once in the results)) VH: EVQLQQSGAELVKAGASVKLSCPASGLNIKDTYMHWVKQRPEQGLEWIGRIDPANGNTKFDPKFQGKATITADTSSNTAYLQLSSLTSEDTAVYYCARGVFGFFDYWGQGTTLTVSS VL: DIQMTQSSSSFSVSLGDRVTITCKATEDIYKRLAWYQQKPGSAPRLLISGATSLETGVPSRFSGSGSGKDYTLSITSLQTEDVATYYCQQFWSAPYTFGGGTKLEIK
0.19 nM	1.4e-05 s⁻¹	73000 M⁻¹ s⁻¹	-15.1 kcal/mol	–	–	–	11K2 scFv mutein L-S53E (scFv, V domains shown, PDB 2BDN heavy chain; PDB 2BDN light chain) with the stated change) VH: EVQLQQSGAELVKAGASVKLSCPASGLNIKDTYMHWVKQRPEQGLEWIGRIDPANGNTKFDPKFQGKATITADTSSNTAYLQLSSLTSEDTAVYYCARGVFGFFDYWGQGTTLTVSS VL: DIQMTQSSSSFSVSLGDRVTITCKATEDIYNRLAWYQQKPGSAPRLLISGATELETGVPSRFSGSGSGKDYTLSITSLQTEDVATYYCQQFWSAPYTFGGGTKLEIK
0.25 nM	2.6e-05 s⁻¹	100000 M⁻¹ s⁻¹	-14.5 kcal/mol	–	–	–	11K2 scFv mutein L-T56E (scFv, V domains shown, PDB 2BDN heavy chain; PDB 2BDN light chain) with the stated change) VH: EVQLQQSGAELVKAGASVKLSCPASGLNIKDTYMHWVKQRPEQGLEWIGRIDPANGNTKFDPKFQGKATITADTSSNTAYLQLSSLTSEDTAVYYCARGVFGFFDYWGQGTTLTVSS VL: DIQMTQSSSSFSVSLGDRVTITCKATEDIYNRLAWYQQKPGSAPRLLISGATSLEEGVPSRFSGSGSGKDYTLSITSLQTEDVATYYCQQFWSAPYTFGGGTKLEIK
